Test results from paper PMC7510951 (Cancer research, 2020).

Molecular target: T1, 6xHis-EYA2 ED (human EYA2 residues 253-538) (human, UniProt O00167 253-538)
T1 sequence (looked up): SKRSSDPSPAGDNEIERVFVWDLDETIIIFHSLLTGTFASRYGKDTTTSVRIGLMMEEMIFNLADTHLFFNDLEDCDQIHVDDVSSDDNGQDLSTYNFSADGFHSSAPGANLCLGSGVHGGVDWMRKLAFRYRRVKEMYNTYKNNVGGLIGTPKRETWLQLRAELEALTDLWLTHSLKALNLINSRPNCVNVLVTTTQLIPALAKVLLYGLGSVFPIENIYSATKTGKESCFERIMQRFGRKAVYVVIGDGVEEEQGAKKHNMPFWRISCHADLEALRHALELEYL
Test: AlphaScreen or HTRF

- binding result: binds
B1: GST-SIX1 (human SIX1 residues 1-259) (domain or fragment, UniProt Q15475 1-259, looked up)
chain: MSMLPSFGFTQEQVACVCEVLQQGGNLERLGRFLWSLPACDHLHKNESVLKAKAVVAFHRGNFRELYKILESHQFSPHNHPKLQQLWLKAHYVEAEKLRGRPLGAVGKYRVRRKFPLPRTIWDGEETSYCFKEKSRGVLREWYAHNPYPSPREKRELAEATGLTTTQVSNWFKNRRQRDRAAEAKERENTENNNSSSNKQNQLSPLEGGKPLMSSSEEEFSPPQSPDQNSVLLLQGNMGHARSSNYSLPGLTASQPSHG
